For one molecule, Kd results are on record in article PMC3197598, “Preventing Staphylococcus aureus Sepsis through the Inhibition of Its Agglutination in Blood” (PLoS Pathogens, 2011).

The assay deals with T1, human fibrinogen (human, UniProt P02671-2 20-644; P02675 31-491; P02679-2 27-437).
T1 construct: fibrinogen A-alpha chain, human; fibrinogen B-beta chain, human; fibrinogen gamma chain, human; Coated on MaxSorb ELISA plates; also called Fbgn; source: bought: Sigma; copies: 2 + 2 + 2
T1 sequence (looked up) 1: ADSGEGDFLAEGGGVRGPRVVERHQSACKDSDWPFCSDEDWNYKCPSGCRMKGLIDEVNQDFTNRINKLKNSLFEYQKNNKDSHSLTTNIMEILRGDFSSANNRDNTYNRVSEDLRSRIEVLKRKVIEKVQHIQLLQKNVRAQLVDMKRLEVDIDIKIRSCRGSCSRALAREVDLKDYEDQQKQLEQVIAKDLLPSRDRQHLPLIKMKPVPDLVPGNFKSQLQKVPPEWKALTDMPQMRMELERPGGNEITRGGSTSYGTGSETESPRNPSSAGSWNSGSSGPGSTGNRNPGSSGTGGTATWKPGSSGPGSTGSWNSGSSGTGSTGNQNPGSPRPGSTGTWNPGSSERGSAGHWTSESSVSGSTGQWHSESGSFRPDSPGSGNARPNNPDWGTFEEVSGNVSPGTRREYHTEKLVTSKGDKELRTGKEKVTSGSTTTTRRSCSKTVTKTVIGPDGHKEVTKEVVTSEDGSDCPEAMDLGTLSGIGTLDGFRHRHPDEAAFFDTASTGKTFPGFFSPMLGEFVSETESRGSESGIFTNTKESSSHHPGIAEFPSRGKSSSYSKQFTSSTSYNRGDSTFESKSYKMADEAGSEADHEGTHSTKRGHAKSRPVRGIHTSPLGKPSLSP
T1 sequence (looked up) 2: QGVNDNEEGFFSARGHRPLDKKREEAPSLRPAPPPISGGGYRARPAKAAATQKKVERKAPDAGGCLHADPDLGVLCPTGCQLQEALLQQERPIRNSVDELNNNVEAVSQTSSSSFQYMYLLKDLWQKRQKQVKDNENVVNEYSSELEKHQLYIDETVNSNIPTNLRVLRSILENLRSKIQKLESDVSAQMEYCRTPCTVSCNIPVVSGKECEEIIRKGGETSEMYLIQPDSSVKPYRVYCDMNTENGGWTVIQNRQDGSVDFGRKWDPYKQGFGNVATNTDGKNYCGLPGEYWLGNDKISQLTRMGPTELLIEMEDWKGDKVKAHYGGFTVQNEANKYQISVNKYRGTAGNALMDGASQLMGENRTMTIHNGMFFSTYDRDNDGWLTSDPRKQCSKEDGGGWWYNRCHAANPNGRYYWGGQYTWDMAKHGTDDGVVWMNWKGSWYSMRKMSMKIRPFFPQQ
T1 sequence (looked up) 3: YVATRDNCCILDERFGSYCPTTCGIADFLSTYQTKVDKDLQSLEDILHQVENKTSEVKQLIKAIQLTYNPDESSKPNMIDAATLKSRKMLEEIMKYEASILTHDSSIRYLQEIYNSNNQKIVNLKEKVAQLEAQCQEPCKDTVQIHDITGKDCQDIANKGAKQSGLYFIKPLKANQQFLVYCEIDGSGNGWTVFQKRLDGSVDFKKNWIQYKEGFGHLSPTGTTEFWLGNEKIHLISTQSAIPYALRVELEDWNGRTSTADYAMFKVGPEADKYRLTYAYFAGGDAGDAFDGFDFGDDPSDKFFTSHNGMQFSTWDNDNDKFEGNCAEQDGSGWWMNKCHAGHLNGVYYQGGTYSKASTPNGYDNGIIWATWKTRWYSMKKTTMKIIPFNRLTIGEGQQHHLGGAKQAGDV
Kind of assay: ELISA; human fibrinogen coated overnight on MaxSorb 96-well plates, wells treated with PBS (fibrinogen) or 100 nM alpha-thrombin in 1% sodium-citrate/PBS for one hour at room temperature (fibrin); ClfA in 1% sodium-citrate added at increasing concentrations for one hour; bound ClfA detected with polyclonal anti-ClfA and anti-rabbit-HRP; non-linear regression, one-site saturation. Particulars: both partners purified.

B1: clumping factor A (ClfA), purified recombinant (natural protein)
chain: not shown
notes: clumping factor A (ClfA) of Staphylococcus aureus; strain Newman is the strain worked with; it would add an N-terminal His tag (surmised); also called His6-ClfA; source: E. coli BL21(DE3), purified (Ni-NTA)
On to B1, for which binding was put at a Kd of 395 ± 51.8 nM.
